Data on two molecules can be found in patent publication US20020064528A1 (published 2002).

Assay [1] concerns the target KDR expressed on the surface of HUVEC (human, UniProt P35968 20-1356). As to the kind of experiment: cell-based or functional assay.
In assay [2] the target is T1, soluble fusion protein KDR-AP (human, UniProt P35968 20-764).
T1 construct: extracellular domain; Expressed in NIH 3T3 cells; also called KDR-alkaline phosphatase fusion protein; immobilized KDR; not shown: human placental alkaline phosphatase (AP) of the vector AP-Tag
As to the kind of experiment: direct binding ELISA on KDR-coated plate, detected by anti-E tag antibody-HRP. (In an ELISA, binding on a coated surface is turned into a signal by an enzyme label.)

In assay [3] the target is T1, soluble fusion protein KDR-AP. As to the kind of experiment: BIAcore, KDR-AP immobilized (Table 2). As to the method: Sensorgrams were obtained at each concentration and were evaluated using a program, BIA Evaluation 2.0, to determine the rate constants kon and koff. Kd was calculated as the ratio of rate constants koff/kon.
*All rates are determined by surface plasmon resonance using BIAcore system and are mean of at least three separate determinations.

T1 sequence (P35968 20-764): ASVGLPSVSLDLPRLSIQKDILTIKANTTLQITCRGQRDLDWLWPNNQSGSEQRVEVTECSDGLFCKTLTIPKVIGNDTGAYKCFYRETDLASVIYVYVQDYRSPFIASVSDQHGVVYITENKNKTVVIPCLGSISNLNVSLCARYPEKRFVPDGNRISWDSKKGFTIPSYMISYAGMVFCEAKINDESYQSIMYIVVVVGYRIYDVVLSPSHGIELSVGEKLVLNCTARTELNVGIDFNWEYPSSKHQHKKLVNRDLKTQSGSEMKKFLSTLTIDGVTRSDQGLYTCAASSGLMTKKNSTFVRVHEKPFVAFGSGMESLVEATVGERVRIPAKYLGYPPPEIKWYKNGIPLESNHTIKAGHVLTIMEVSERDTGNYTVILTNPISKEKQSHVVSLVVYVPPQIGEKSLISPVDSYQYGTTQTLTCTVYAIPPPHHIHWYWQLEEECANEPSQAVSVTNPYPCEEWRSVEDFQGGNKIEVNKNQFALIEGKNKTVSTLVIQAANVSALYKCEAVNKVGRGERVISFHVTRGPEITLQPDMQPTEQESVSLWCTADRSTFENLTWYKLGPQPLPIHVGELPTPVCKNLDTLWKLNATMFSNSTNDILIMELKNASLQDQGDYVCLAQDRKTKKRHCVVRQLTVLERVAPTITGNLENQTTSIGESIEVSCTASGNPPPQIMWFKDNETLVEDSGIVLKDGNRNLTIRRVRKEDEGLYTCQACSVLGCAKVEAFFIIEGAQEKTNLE
Sequence of KDR expressed on the surface of HUVEC (P35968 20-1356): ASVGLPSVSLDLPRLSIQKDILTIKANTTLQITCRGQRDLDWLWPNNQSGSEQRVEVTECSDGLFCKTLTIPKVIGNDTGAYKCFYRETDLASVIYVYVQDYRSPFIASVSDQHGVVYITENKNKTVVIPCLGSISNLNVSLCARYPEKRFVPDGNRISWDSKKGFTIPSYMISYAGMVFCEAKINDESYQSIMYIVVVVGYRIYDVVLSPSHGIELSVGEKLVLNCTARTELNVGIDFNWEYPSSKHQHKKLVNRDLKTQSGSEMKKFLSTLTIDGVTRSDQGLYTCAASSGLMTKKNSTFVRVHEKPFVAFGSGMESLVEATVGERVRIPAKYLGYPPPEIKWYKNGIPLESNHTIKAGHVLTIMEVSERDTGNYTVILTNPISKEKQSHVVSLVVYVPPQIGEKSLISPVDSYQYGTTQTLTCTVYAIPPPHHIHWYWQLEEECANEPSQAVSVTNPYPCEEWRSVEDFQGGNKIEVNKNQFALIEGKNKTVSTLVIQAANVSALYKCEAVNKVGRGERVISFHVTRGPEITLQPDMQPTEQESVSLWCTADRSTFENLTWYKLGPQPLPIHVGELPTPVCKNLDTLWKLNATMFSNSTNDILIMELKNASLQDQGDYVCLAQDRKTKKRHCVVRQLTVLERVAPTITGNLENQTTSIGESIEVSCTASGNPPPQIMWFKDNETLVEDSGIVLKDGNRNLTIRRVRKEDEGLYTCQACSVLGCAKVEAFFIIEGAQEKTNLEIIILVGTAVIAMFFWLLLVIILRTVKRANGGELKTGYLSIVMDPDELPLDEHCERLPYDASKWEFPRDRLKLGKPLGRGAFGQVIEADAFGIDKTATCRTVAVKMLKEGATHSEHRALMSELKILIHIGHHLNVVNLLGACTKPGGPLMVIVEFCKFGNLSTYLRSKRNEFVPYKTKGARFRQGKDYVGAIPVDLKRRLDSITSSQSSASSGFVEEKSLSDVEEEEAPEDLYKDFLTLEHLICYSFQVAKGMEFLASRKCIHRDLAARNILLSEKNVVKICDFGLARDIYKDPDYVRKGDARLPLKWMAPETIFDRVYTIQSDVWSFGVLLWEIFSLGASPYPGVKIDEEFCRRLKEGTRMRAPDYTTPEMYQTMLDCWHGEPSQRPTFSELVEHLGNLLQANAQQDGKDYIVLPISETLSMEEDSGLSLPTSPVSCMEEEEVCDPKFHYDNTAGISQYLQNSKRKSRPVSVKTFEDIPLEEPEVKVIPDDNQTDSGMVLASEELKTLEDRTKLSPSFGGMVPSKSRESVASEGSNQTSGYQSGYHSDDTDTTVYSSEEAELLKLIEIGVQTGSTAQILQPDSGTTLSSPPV

B1: scFv p1C11 (scFv)
chain: QVKLQQSGAELVGSGASVKLSCTTSGFNIKDFYMHWVKQRPEQGLEWIGWIDPENGDSDYAPKFQGKATMTADSSSNTAYLQLSSLTSEDTAVYYCNAYYGDYEGYWGQGTTVTVSSGGGGSGGGGSGGGGSDIELTQSPAIMSASPGEKVTITCSASSSVSYMHWFQQKPGTSPKLWIYSTSNLASGVPARFSGSGSGTSYSLTISRMEAEDAATYYCQQRSSYPFTFGSGTKLEIK
Consider B1, for which the “EC50, antibody concentration that inhibited 50% of VEGF-stimulated mitogenesis of HUVEC ([3H]-TdR incorporation)” value in assay [1] is roughly 5 nM. In assay [2], the EC50 (read off the curve) (as a rule, the concentration needed to bring the measured effect to its halfway point) is roughly 0.8 nM.

B2: chimeric anti-KDR antibody c-p1C11 (antibody, V domains shown)
VH: QVKLQQSGAELVGSGASVKLSCTTSGFNIKDFYMHWVKQRPEQGLEWIGWIDPENGDSDYAPKFQGKATMTADSSSNTAYLQLSSLTSEDTAVYYCNAYYGDYEGYWGQGTTVTVSS
VL: DIELTQSPAIMSASPGEKVTITCSASSSVSYMHWFQQKPGTSPKLWIYSTSNLASGVPARFSGSGSGTSYSLTISRMEAEDAATYYCQQRSSYPFTFGSGTKLEIK
notes: Bivalent chimeric IgG1/kappa with the mouse variable domains of p1C11; expressed in COS cells and purified on Protein G. The leader peptide added for secretion is not part of the mature protein; also called Chimeric-p1C11; c-p1C11 IgG
In the case of B2, in assay [3], the “fold higher affinity than the parent scFv” value was roughly 2.5 fold.
